Publication PMC6890793, “How water-mediated hydrogen bonds affect chlorophyll a/b selectivity in Water-Soluble Chlorophyll Protein” (Scientific Reports, 2019)

Biological target: the molecule itself
Experiment: crystal structure; Chl b-reconstituted WSCP crystallised by hanging-drop vapour diffusion (Lv-wt: 0.1 M Na/K phosphate pH 6.0, 3.0 M (NH4)2SO4, 4.7% sucrose; Bo-wt: 0.1 M (NH4)H2PO4 pH 4.5, 10% PEG 3350); data at 100 K; molecular replacement with the Chl a complexes

B1: Water-Soluble Chlorophyll Protein (WSCP) from Brassica oleracea var. botrytis, wild type, reconstituted with Chl b (natural protein)
chain: REQVKDSNGNPVKRGAKYFIQPAKSNGGGLVPAAINILPFCPLGITQTLLPYQPGLPVSFGYEPVIVGTDYIYTSTTINIEFRSEIWPVCNELSKLWAVDVSSSAAKEPAIIIGGERTAPNSLFKIEEATGAHTYKLTTSSGTVGTIPGPWLGAPQLIATNDDAKTLFVKFVKVDDDAT
notes: Water-Soluble Chlorophyll Protein (WSCP), Brassica oleracea var. botrytis (cauliflower), wild type; also called Bo-wt; Chl b Bo-wt; source: E. coli, overexpressed, purified; apoprotein reconstituted with Chl b
binding result: binds
